Laboratory results: PMC3212559, “Large-Scale Protein-Protein Interaction Analysis in Arabidopsis Mesophyll Protoplasts by Split Firefly Luciferase Complementation” (PLoS ONE, 2011)

Legend:
Assay in all cases: split reporter (BiFC, NanoBiT); SFLC in living Arabidopsis mesophyll protoplasts: Aux/IAA-FLucN or MYB30-FLucN co-expressed with ARFCTD-FLucC or Aux/IAA-FLucC for 6 hr; 10 µg of each construct, 2×10^4 cells, 96-well plate, D-luciferin; relative activity standardised against ARF5CTD-FLucC + IAA28-FLucN
Details in all cases: partners not purified
[1] = biological target: T1, ARF10 C-terminal domain (CTD)-FLucC (Arabidopsis, UniProt Q9SKN5 580-693)
T1 construct: Arabidopsis auxin response factor 10, C-terminal dimerization domain (CTD); In the ARF-ARF tests the same CTD stood both as ARFCTD-FLucC and as ARFCTD-FLucN; one molecule for both; also called ARF10CTD-FLucC; ARFCTD-FLucC; source: Arabidopsis mesophyll protoplasts, transfected, in living cells (SFLC) and in lysate (co-IP); not shown: FLucC (firefly luciferase aa 394-550)
T1 sequence (looked up): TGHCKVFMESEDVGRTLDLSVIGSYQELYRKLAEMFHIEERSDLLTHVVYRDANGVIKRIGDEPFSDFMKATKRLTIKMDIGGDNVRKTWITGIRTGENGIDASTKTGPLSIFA

IAA18-FLucC = biological target: T2, IAA18-FLucC (Arabidopsis, UniProt O24408 1-267)
T2 construct: Arabidopsis Aux/IAA protein IAA18; also called Aux/IAA-FLucC; source: Arabidopsis mesophyll protoplasts, transfected, in living cells; not shown: FLucC (firefly luciferase aa 394-550)
T2 sequence (looked up): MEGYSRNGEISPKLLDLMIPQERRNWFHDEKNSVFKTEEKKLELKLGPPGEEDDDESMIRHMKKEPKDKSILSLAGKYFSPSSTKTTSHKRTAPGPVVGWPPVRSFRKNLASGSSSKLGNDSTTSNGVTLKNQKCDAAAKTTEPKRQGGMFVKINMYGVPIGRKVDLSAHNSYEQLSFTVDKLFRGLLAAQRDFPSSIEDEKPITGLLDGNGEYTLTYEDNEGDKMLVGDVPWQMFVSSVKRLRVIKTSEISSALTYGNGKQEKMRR

[2] = biological target: T3, ARF1 C-terminal domain (CTD)-FLucC (Arabidopsis, UniProt Q8L7G0 542-665)
T3 construct: Arabidopsis auxin response factor 1, C-terminal dimerization domain (CTD); In the ARF-ARF tests the same CTD stood both as ARFCTD-FLucC and as ARFCTD-FLucN (FLucN, firefly luciferase aa 1-398, in place of FLucC); one molecule for both; also called ARF1CTD-FLucC; ARFCTD-FLucC; source: Arabidopsis mesophyll protoplasts, transfected, in living cells (SFLC) and in lysate (co-IP); not shown: FLucC …
T3 sequence (looked up): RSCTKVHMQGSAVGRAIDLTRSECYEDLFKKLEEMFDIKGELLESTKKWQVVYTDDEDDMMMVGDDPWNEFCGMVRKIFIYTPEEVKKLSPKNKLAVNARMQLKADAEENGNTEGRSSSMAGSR

IAA14-FLucC = biological target: T4, IAA14-FLucC (Arabidopsis, UniProt Q38832 1-228)
T4 construct: Arabidopsis Aux/IAA protein IAA14; also called Aux/IAA-FLucC; source: Arabidopsis mesophyll protoplasts, transfected, in living cells; not shown: FLucC (firefly luciferase aa 394-550)
T4 sequence (looked up): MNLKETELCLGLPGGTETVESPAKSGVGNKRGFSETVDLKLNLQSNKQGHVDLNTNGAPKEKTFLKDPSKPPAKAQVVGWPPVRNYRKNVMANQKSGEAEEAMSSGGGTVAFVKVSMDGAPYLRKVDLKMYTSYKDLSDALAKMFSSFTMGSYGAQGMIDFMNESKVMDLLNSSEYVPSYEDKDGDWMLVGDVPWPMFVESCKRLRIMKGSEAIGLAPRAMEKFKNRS

IAA13-FLucC = biological target: T5, IAA13-FLucC (Arabidopsis, UniProt Q38831 1-247)
T5 construct: Arabidopsis Aux/IAA protein IAA13; also called Aux/IAA-FLucC; source: Arabidopsis mesophyll protoplasts, transfected, in living cells; not shown: FLucC (firefly luciferase aa 394-550)
T5 sequence (looked up): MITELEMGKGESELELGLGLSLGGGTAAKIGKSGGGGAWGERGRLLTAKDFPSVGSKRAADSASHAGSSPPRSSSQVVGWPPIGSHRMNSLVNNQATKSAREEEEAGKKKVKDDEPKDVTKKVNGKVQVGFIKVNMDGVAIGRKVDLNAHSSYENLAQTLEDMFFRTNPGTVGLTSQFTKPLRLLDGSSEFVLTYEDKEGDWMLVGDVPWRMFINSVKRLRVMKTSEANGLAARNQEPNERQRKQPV

Measured: relative luciferase activity (standardised against ARF5CTD-FLucC + IAA28-FLucN)

B1: MYB30-FLucN (natural protein, UniProt Q9SCU7 1-323, looked up)
chain: MVRPPCCDKGGVKKGPWTPEEDIILVTYIQEHGPGNWRAVPTNTGLLRCSKSCRLRWTNYLRPGIKRGNFTEHEEKMIVHLQALLGNRWAAIASYLPQRTDNDIKNYWNTHLKKKLNKVNQDSHQELDRSSLSSSPSSSSANSNSNISRGQWERRLQTDIHLAKKALSEALSPAVAPIITSTVTTTSSSAESRRSTSSASGFLRTQETSTTYASSTENIAKLLKGWVKNSPKTQNSADQIASTEVKEVIKSDDGKECAGAFQSFSEFDHSYQQAGVSPDHETKPDITGCCSNQSQWSLFEKWLFEDSGGQIGDILLDENTNFF
notes: transcription factor MYB30, the unrelated protein used as negative control; source: Arabidopsis mesophyll protoplasts, transfected, in living cells; not shown: FLucN (firefly luciferase aa 1-398)
< 0.1: all assays above
